# ± gives the standard deviation of the averaged measurements.
# Columns and labels:
# Saccharomyces cerevisiae [1] = assay: protein stability index of tFT-peptide fusion (C-terminal peptide) (PSI (0-1 scale)); higher = more stable (slower turnover); details: genetic background: wild type; temperature: 30 C
# Saccharomyces cerevisiae [2] = assay: as above
# Description: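 MPS profiling in S. cerevisiae of the tFT-X12 degron library: putative degron peptides plus stable controls, 12 aa, fused to the C-terminus of a sfGFP-mCherry timer. Cells are FACS-sorted into 8 mCherry/sfGFP bins and deep-sequenced. PSI runs from 0 (unstable) to 1 (stable). Backgrounds are wild type, das1Δ and doa10Δ at 30 °C, and wild type, das1Δ, cdc34-1 and cdc53-1 at 37 °C; 2-3 technical replicates each.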
# [3] = genetic background: cdc34-1, temperature: 37 C
# [4] = genetic background: cdc53-1, temperature: 37 C
# [5] = genetic background: das1 deletion, temperature: 30 C
# [6] = genetic background: das1 deletion, temperature: 37 C
# [7] = genetic background: doa10 deletion, temperature: 30 C
# [8] = genetic background: wild type, temperature: 30 C
# [9] = genetic background: wild type, temperature: 37 C
# 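Further: PSI is a weighted mean of sequencing reads over stability bins, variants kept only with over 10 reads, mCherry proximal and sfGFP distal, peptide attached via GGGS linker.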
Sequence,protein stability index (Saccharomyces cerevisiae [1]),protein stability index (Saccharomyces cerevisiae [2]; [3]),protein stability index (Saccharomyces cerevisiae [2]; [4]),protein stability index (Saccharomyces cerevisiae [2]; [5]),protein stability index (Saccharomyces cerevisiae [2]; [6]),protein stability index (Saccharomyces cerevisiae [2]; [7]),protein stability index (Saccharomyces cerevisiae [2]; [8]),protein stability index (Saccharomyces cerevisiae [2]; [9])
CVFCLTVFVRFL,0.243 ± 0.011,0.197 ± 0.0067,0.26 ± 0.018,0.192 ± 0.028,0.346 ± 0.015,0.128 ± 0.014,0.151 ± 0.022,0.2572 ± 0.0012
CVFVWFWCMTWV,0.168 ± 0.0053,0.171 ± 0.089,0.164 ± 0.016,0.0811 ± 0.048,0.313 ± 0.15,0.105 ± 0.069,0.117 ± 0.11,0.345 ± 0.13
CVLFLGQILCVV,0.332 ± 0.0076,0.266 ± 0.018,0.328 ± 0.01,0.28 ± 0.033,0.3857 ± 0.00079,0.236 ± 0.011,0.276 ± 0.017,0.339 ± 0.026
CYSRRGCIYFFF,0.192 ± 0.037,0.564 ± 0.029,0.693 ± 0.009,0.583 ± 0.016,0.698 ± 0.0099,0.0971 ± 0.018,0.101 ± 0.022,0.157 ± 0.0033
DHSIYYGVAKVF,0.163 ± 0.055,0.484 ± 0.017,0.652 ± 0.012,0.5745 ± 0.0018,0.694 ± 0.018,0.0729 ± 0.022,0.0841 ± 0.024,0.09554 ± 0.00036
DKKNCIIIYYKQ,0.147 ± 0.062,0.479 ± 0.053,0.706 ± 0.074,0.653 ± 0.021,0.6973 ± 0.0046,0.0802 ± 0.03,0.0804 ± 0.024,0.106 ± 0.011
DLDLLTKFSKEC,0.466 ± 0.03,0.702 ± 0.028,0.77 ± 0.013,0.628 ± 0.043,0.743 ± 0.028,0.4783 ± 0.0024,0.503 ± 0.025,0.656 ± 0.018
DRHCLVSLSPDG,0.5 ± 0.1,0.64 ± 0.03,0.665 ± 0.03,0.618 ± 0.015,0.686 ± 0.029,0.623 ± 0.016,0.6079 ± 0.0033,0.678 ± 0.033
DRLAVLVLLRVY,0.109 ± 0.017,0.0219 ± 0.0022,0.0458 ± 0.013,0.137 ± 0.041,0.182 ± 0.0035,0.0574 ± 0.01,0.0636 ± 0.018,0.0571 ± 0.016
DRRFLVMISVSL,0.398 ± 0.039,0.33 ± 0.01,0.357 ± 0.016,0.272 ± 0.045,0.458 ± 0.008,0.251 ± 0.0083,0.262 ± 0.028,0.414 ± 0.0086
DRSPLPAIFVAQ,0.681 ± 0.047,0.7 ± 0.028,0.746 ± 0.021,0.674 ± 0.013,0.7428 ± 0.0073,0.665 ± 0.013,0.643 ± 0.012,0.733 ± 0.016
DTAFLLVVVVGR,0.373 ± 0.042,0.309 ± 0.0076,0.358 ± 0.036,0.257 ± 0.028,0.446 ± 0.017,0.213 ± 0.0084,0.232 ± 0.032,0.411 ± 0.029
DYIFVYAVMFMR,0.265 ± 0.045,0.14 ± 0.046,0.292 ± 0.046,0.152 ± 0.026,0.319 ± 0.02,0.116 ± 0.0035,0.118 ± 0.031,0.308 ± 0.02
EFCITAFVSVLT,0.435 ± 0.012,0.452 ± 0.029,0.431 ± 0.017,0.324 ± 0.033,0.483 ± 0.017,0.287 ± 0.011,0.329 ± 0.025,0.462 ± 0.0064
EGLRVSVCAWVM,0.339 ± 0.023,0.38 ± 0.043,0.467 ± 0.0075,0.313 ± 0.03,0.4385 ± 0.0017,0.253 ± 0.019,0.277 ± 0.013,0.421 ± 0.0079

# From the supplement of paper PMC10724198
